According to paper PMC10405735:

Columns and labels:
CCL20 (Mus musculus) = CCL20 (Mus musculus) (UniProt O89093); settings: cited from earlier work
[1] = biological target: human GPR182 (hGPR182), expressed from hGPR182 T2A GFP in 300.19 pre-B cells (human) (UniProt O15218); test: flow cytometry on cells; competition scavenging at 37°C: 300.19 cells expressing mGPR182 or hGPR182 with 3 nM fluorescent chemokine and increasing concentrations of its unlabeled counterpart, 45 min
[2] = biological target: murine GPR182 (mGPR182), expressed from mGPR182 T2A GFP in 300.19 pre-B cells (mouse) (UniProt P43142); test: as above

Row | Kd (competition scavenging) [1] [µM] | Kd (competition scavenging) [2] [µM] | Substance | Kd (CCL20 (Mus musculus)) [µM]
1 |  |  | ACKR4 (from UniProt Q924I3) | 0.8
2 | 0.085 | 0.06 | hCXCL12, unlabeled (from UniProt P48061 22-93) (ligand) | 
